In publication PMC8109768, “Differential recognition of HIV-stimulated IL-1β and IL-18 secretion through NLR and NAIP signalling in monocyte-derived macrophages” (PLoS Pathogens, 2021):

How the values were obtained:
NAIP (human) [1] = molecular target: NAIP (human) (UniProt Q13075); assay: SPR; BIAcore 3000; NAIP amine-coupled to a CM5 chip; gp41 proteins (500ng, 1μg, 5μg, 10μg) injected at flow rate 10 ml/min for 240 s; flagellin as positive control; BIA EVALUATION 3.0
NAIP (human) [2] = molecular target: NAIP (human) (UniProt Q13075); assay: FRET or BRET; FRET between fluorophore-labelled antibodies (Alexa488 donor, Alexa546 acceptor) in monocyte-derived macrophages infected with HIV-1; dequenching of the donor after photobleaching of the acceptor
NAIP = molecular target: T1, NAIP (human, UniProt Q13075-1 1-1403); assay: SPR; BIAcore 3000; NAIP amine-coupled to a CM5 chip; gp41 proteins (500ng, 1μg, 5μg, 10μg) injected at flow rate 10 ml/min for 240 s; flagellin as positive control; BIA EVALUATION 3.0; conditions: both partners purified
T1 construct: NAIP, human, endogenous protein; for SPR pulled out of a human cell lysate with an antibody column; also called human NAIP; endogenous NAIP; source: purified from human cell lysate (NHS column with NAIP antibody LS-B455, dialysis, gel filtration); endogenous, human monocyte-derived macrophages (in cells and in lysate)
T1 sequence (looked up): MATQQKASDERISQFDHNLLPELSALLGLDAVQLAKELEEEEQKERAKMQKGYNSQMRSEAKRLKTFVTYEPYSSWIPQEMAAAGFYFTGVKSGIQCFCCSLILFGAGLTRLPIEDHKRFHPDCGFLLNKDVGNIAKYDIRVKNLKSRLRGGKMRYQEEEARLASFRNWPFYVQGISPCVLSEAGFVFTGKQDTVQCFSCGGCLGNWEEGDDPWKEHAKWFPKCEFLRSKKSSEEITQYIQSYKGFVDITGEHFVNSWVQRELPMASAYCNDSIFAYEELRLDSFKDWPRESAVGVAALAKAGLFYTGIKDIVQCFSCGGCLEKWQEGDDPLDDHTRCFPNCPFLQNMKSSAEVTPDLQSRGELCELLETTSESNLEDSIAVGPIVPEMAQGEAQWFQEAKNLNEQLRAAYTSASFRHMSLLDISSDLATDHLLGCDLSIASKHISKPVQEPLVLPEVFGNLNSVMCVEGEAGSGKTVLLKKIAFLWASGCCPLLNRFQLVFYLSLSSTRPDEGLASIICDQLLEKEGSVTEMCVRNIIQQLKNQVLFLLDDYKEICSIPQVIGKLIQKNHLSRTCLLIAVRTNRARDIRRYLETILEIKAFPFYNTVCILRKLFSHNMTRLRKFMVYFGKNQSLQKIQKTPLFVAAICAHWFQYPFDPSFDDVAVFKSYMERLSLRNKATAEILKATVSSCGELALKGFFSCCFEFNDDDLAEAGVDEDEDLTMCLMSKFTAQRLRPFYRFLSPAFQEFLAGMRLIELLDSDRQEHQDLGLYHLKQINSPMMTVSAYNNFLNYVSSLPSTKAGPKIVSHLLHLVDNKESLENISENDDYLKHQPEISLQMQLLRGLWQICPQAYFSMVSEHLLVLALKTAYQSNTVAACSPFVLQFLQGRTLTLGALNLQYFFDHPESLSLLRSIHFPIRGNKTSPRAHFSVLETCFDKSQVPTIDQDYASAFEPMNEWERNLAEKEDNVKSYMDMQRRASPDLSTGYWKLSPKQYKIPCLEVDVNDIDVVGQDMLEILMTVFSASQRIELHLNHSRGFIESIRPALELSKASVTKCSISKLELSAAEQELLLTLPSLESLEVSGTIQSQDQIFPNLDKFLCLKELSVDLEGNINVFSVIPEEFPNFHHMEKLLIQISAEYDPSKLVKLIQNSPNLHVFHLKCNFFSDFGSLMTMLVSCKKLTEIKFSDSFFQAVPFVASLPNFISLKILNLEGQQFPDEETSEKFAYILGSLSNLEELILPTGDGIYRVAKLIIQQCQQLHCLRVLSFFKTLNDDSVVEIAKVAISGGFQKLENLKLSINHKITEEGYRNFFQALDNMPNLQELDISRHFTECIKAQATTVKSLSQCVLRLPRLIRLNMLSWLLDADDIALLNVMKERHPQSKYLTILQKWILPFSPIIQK

Flagellin, sequence (P06179 2-495): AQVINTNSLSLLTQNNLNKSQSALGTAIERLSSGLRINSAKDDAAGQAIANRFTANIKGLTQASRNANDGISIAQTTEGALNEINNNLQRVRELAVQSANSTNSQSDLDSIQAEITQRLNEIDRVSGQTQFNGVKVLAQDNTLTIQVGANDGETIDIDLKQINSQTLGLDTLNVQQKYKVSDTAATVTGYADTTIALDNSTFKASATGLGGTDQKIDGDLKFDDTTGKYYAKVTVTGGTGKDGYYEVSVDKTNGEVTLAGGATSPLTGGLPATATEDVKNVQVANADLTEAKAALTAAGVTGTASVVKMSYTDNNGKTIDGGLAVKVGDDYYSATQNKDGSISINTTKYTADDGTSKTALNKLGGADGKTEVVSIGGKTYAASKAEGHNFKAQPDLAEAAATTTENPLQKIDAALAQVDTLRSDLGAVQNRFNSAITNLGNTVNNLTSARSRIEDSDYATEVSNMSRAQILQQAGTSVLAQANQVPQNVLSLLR

Molecule | Kd (NAIP (human) [1]) [nM] | koff (NAIP (human) [1]) [s⁻¹] | kon (NAIP (human) [1]) [M⁻¹ s⁻¹] | FRET efficiency E (NAIP (human) [2]) [%] | Kd (NAIP) [nM] | koff (NAIP) [s⁻¹] | kon (NAIP) [M⁻¹ s⁻¹]
gp41 CT (from UniProt P04578 707-856) (domain or fragment) | 0.413 | 9.87e-06 | 23900 | – | – | – | –
HIV-1 glycoprotein 41 (gp41) (natural protein) | – | – | – | 24 | – | – | –
Flagellin (from UniProt P06179 1-495) (natural protein) | 0.0247 | 9.81e-07 | 39700 | – | – | – | –
gp41TM/CT (domain or fragment) FIMIVGGLVGLRIVFAVLSIVNRVRQGYSPLSFQTHLPTPRGPDRPEGIEEEGGERDRDRSIRLVNGSLALIWDDLRSLCLFSYHRLRDLLLIVTRIVELLGRRGWEALKYWWNLLQYWSQELKNSAVSLLNATAIAVAEGTDRVIEVVQGACRAIRHIPRRIRQGLERILL | – | – | – | – | 1.59 | 6.91e-05 | 43500
